Data: patent US20250306040A1 (UNIVERSITY OF KENTUCKY RESEARCH FOUNDATION, published 2025)
No end group written: not given here.

B1: human amylin synthetic peptide (AS-60254-1, Anaspec) (peptide)
peptide: KCNTATCATQRLANFLVHSSNNFGAILSSTNVGSNTY
modifications: ends and bridges not checked; cysteine pairing not given here
notes: The same id is used for human amylin in human brain sections and in HIP rat pancreas; also called islet amyloid polypeptide; IAPP
B2: rat amylin (peptide, UniProt P12969 38-74, looked up)
peptide: KCNTATCATQRLANFLVRSSNNLGPVLPPTNVGSNTY
notes: also called rodent amylin; non-amyloidogenic rat amylin

Columns and labels:
[1] = biological target: T1, Aβ40 synthetic peptide (AS-24235, Anaspec) (human, UniProt P05067 672-711); assay: amylin-Aβ sandwich ELISA on co-incubated peptides, human amylin against rat amylin
T1 construct: domain: Aβ40; also called human Aβ40
T1 sequence (P05067 672-711 limits assumed): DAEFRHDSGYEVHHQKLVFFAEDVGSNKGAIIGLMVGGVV
Experimental: The reaction was stopped by adding 50 μL of stop solution (N600, Thermo Scientific) after developing the signals, the plate was read at 450 nm in a spectrophotometer. Amylin-Aβ concentrations were calculated by generating a graph between relative optical density (O.D.) 450 of standards vs standard concentrations, after subtracting the optical density of standard blank and sample blank from the optical density of standards and samples respectively.
Amylin-Aβ aggregates were prepared using the procedure described by O'Nuallain et al. Briefly, 30 μM human amylin synthetic peptide (AS-60254-1, Anaspec) was incubated in PBSA (PBS+0.05% sodium azide) in a water bath at 37° C. for 5 hrs. Aβ₄₀ synthetic peptide (16.2 μM) (AS-24235, Anaspec) was preincubated at 37° C. for 2 hrs. […]
Specificity of amylin-Aβ sandwich ELISA was confirmed using a solution phase amylin-Aβ aggregation assay described in O'Nuallain et al. Synthetic human amylin and Aβ₄₀ peptides were incubated for promoting the amylin-Aβ aggregation and subjected to the amylin-Aβ sandwich ELISA. […] A robust amylin-Aβ immuno-reactivity signal was detected in co-aggregated amylin-Aβ solution, but not in the homogenous amylin and Aβ solutions (FIG. 2A). The aggregated amylin-Aβ solution was assayed for biochemical characteristics of amyloid by measuring the Thioflavin-T (Th-T) fluorescence signal intensity. […]

[2] = biological target: T1, Aβ40 synthetic peptide (AS-24235, …); assay: time course (0 to 24 hours) of sandwich ELISA signal of human amylin incubated with Aβ40, in parallel with Th-T fluorescence
[3] = biological target: T1, Aβ40 synthetic peptide (AS-24235, …); assay: amylin-Aβ sandwich ELISA on co-incubated peptides

Binder | fold amylin-Aβ ELISA signal intensity against rat amylin-Aβ co-aggregation [1] | fold increase of signal intensity from the baseline [2] | binding result [3]
B1 | ~7 fold | 3 fold | 
B2 |  |  | binds
